Sequences and labels used below:
T1: Boi1 SH3 (BOI1_YEAST), P38041
T1 chain: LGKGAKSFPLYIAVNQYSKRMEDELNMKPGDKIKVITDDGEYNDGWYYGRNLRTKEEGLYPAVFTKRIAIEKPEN

T2: Myo5 SH3 (MYO5_YEAST), Q04439
T2 chain: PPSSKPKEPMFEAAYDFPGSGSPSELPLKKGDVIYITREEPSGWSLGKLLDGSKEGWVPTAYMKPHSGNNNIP

T3: Boi2 SH3 (BOI2_YEAST), P39969
T3 chain: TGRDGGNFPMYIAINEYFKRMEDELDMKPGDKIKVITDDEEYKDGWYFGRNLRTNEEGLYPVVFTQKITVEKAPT

T4: Yfr024 SH3 (LSB3_YEAST), P43603
T4 chain: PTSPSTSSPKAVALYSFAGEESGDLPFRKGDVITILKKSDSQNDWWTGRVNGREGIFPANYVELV

T5: Rvs167 SH3 (RV167_YEAST), P39743
T5 chain: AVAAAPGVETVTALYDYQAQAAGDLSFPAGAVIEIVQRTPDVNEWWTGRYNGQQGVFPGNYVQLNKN

T6: Yhr016c SH3 (YSC84_YEAST), P32793
T6 chain: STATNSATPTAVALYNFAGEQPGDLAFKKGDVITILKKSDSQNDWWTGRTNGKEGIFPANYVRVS

In one assay the target is T1, Boi1 SH3 (BOI1_YEAST), P38041. Description: SPOT array.
The molecule PSAMKLVPSIPPAT [YBR154C 118-131] displayed a normalised SPOT signal, Boehringer light units (BLU); mean over the file's lines of this peptide of 89.4.
On the same count and under the same terms, the same measure for PPNYKQQPNSPSSN [YLR183C 18-31]: 61.
The same measure, in the same setting: the same measure for PQTMRQAPKRPDAD [YNL298W 493-506]: 350; for PLRERIIPILPANS [YMR164C 159-172]: 340; for PKSPKAYPKLPDIQ [YDL117W 352-365]: 409.
Same read-out and setting: the same measure for PRSKKKKPAPPTLL [YMR039C 165-178]: 84.3; for PPLPRAPPVPPATF [YJL021C 6-19]: 152; for PPQMRSNPQQPPQD [YPL204W 472-485]: 92.2.
PPPPRRGPAPPPPP [YOR181W 345-358] showed a normalised SPOT signal, Boehringer light units (BLU); mean over the file's lines of this peptide of 4340.
Still for that read-out and setting: the same measure for PQQNRPLPQLPNRN [YOR181W 307-320]: 3740; for PPSIRKQPIAPDVL [YJR092W 754-767]: 220.
Still for that read-out and setting: in the case of PKTGKPLPTQPSSS [YKR001C 557-570] it was 609.
Turning to PNPLKKAPIPPLAY [YPR059C 36-49], the normalised SPOT signal, Boehringer light units (BLU); mean over the file's lines of this peptide amounted to 73.1.
Still for that read-out and setting: in the case of PPRFKNFPTLPSKI [YLL015W 59-72] it was 572.

The target of the next assay is T2, Myo5 SH3 (MYO5_YEAST), Q04439. The assay can be described thus: SPOT array.
For the molecule PSAMKLVPSIPPAT [YBR154C 118-131], the normalised SPOT signal, Boehringer light units (BLU); mean over the file's lines of this peptide came out at 561.
Same read-out and setting: in the case of PPNYKQQPNSPSSN [YLR183C 18-31] it was 148; in that of PQTMRQAPKRPDAD [YNL298W 493-506], 3260; in that of PLRERIIPILPANS [YMR164C 159-172], 175.
The same measure, in the same setting: in the case of PKSPKAYPKLPDIQ [YDL117W 352-365] it was 357; in that of PRSKKKKPAPPTLL [YMR039C 165-178], 413.
On the same count and under the same terms, the same measure for PPLPRAPPVPPATF [YJL021C 6-19]: 35900; for PPQMRSNPQQPPQD [YPL204W 472-485]: 268.
PPPPRRGPAPPPPP [YOR181W 345-358] displayed a normalised SPOT signal, Boehringer light units (BLU); mean over the file's lines of this peptide of 15000.
The same measure, in the same setting: in the case of PQQNRPLPQLPNRN [YOR181W 307-320] it was 186; in that of PPSIRKQPIAPDVL [YJR092W 754-767], 150; in that of PKTGKPLPTQPSSS [YKR001C 557-570], 193.
Still for that read-out and setting: the same measure for PNPLKKAPIPPLAY [YPR059C 36-49]: 137.
Same read-out and setting: the same measure for PPRFKNFPTLPSKI [YLL015W 59-72]: 634.

For another assay, the target named is Sho1 SH3 (SHO1_YEAST), P40073. The assay can be described thus: SPOT array.
Chain of Sho1 SH3 (SHO1_YEAST), P40073 (P40073 295-366): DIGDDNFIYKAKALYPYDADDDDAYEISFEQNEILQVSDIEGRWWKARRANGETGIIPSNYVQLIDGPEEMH
In turn, PSAMKLVPSIPPAT [YBR154C 118-131] returned a normalised SPOT signal, Boehringer light units (BLU); mean over the file's lines of this peptide of 42.6.
Same read-out and setting: the same measure for PPNYKQQPNSPSSN [YLR183C 18-31]: 27.6; for PQTMRQAPKRPDAD [YNL298W 493-506]: 121.
On the same count and under the same terms, the same measure for PLRERIIPILPANS [YMR164C 159-172]: 950; for PKSPKAYPKLPDIQ [YDL117W 352-365]: 143; for PRSKKKKPAPPTLL [YMR039C 165-178]: 57.4.
On the same count and under the same terms, the same measure for PPLPRAPPVPPATF [YJL021C 6-19]: 29.4; for PPQMRSNPQQPPQD [YPL204W 472-485]: 56.5; for PPPPRRGPAPPPPP [YOR181W 345-358]: 8.1.
PQQNRPLPQLPNRN [YOR181W 307-320]: the normalised SPOT signal, Boehringer light units (BLU); mean over the file's lines of this peptide is 31600.
The same measure, in the same setting: in the case of PPSIRKQPIAPDVL [YJR092W 754-767] it was 25.8; in that of PKTGKPLPTQPSSS [YKR001C 557-570], 22000; in that of PNPLKKAPIPPLAY [YPR059C 36-49], 20.3.
The same measure, in the same setting: in the case of PPRFKNFPTLPSKI [YLL015W 59-72] it was 3830.

The next assay addresses T3, Boi2 SH3 (BOI2_YEAST), P39969. Description: SPOT array.
Turning to PSAMKLVPSIPPAT [YBR154C 118-131], the normalised SPOT signal, Boehringer light units (BLU); mean over the file's lines of this peptide came out at 21.6.
The same measure, in the same setting: the same measure for PPNYKQQPNSPSSN [YLR183C 18-31]: 17.5; for PQTMRQAPKRPDAD [YNL298W 493-506]: 743; for PLRERIIPILPANS [YMR164C 159-172]: 16.
Same read-out and setting: the same measure for PKSPKAYPKLPDIQ [YDL117W 352-365]: 23.5; for PRSKKKKPAPPTLL [YMR039C 165-178]: 17.2; for PPLPRAPPVPPATF [YJL021C 6-19]: 13.2.
Same read-out and setting: the same measure for PPQMRSNPQQPPQD [YPL204W 472-485]: 194.
As for PPPPRRGPAPPPPP [YOR181W 345-358], the normalised SPOT signal, Boehringer light units (BLU); mean over the file's lines of this peptide stood at 19.8.
Still for that read-out and setting: in the case of PQQNRPLPQLPNRN [YOR181W 307-320] it was 4.1; in that of PPSIRKQPIAPDVL [YJR092W 754-767], 13.5; in that of PKTGKPLPTQPSSS [YKR001C 557-570], 9.7.
Same read-out and setting: the same measure for PNPLKKAPIPPLAY [YPR059C 36-49]: 0.
On the same count and under the same terms, the same measure for PPRFKNFPTLPSKI [YLL015W 59-72]: 60.1.

In a further assay the target is T4, Yfr024 SH3 (LSB3_YEAST), P43603. The assay can be described thus: SPOT array.
For PSAMKLVPSIPPAT [YBR154C 118-131], the normalised SPOT signal, Boehringer light units (BLU); mean over the file's lines of this peptide is 251.
The same measure, in the same setting: in the case of PPNYKQQPNSPSSN [YLR183C 18-31] it was 184; in that of PQTMRQAPKRPDAD [YNL298W 493-506], 15700; in that of PLRERIIPILPANS [YMR164C 159-172], 949.
On the same count and under the same terms, in the case of PKSPKAYPKLPDIQ [YDL117W 352-365] it was 83.8.
On the same count and under the same terms, in the case of PRSKKKKPAPPTLL [YMR039C 165-178] it was 157; in that of PPLPRAPPVPPATF [YJL021C 6-19], 135; in that of PPQMRSNPQQPPQD [YPL204W 472-485], 3150.
PPPPRRGPAPPPPP [YOR181W 345-358] yielded a normalised SPOT signal, Boehringer light units (BLU); mean over the file's lines of this peptide of 212.
Still for that read-out and setting: in the case of PQQNRPLPQLPNRN [YOR181W 307-320] it was 36200.
Turning to PPSIRKQPIAPDVL [YJR092W 754-767], the normalised SPOT signal, Boehringer light units (BLU); mean over the file's lines of this peptide turned out to be 450.
On the same count and under the same terms, in the case of PKTGKPLPTQPSSS [YKR001C 557-570] it was 89.9.
The same measure, in the same setting: in the case of PNPLKKAPIPPLAY [YPR059C 36-49] it was 15.3; in that of PPRFKNFPTLPSKI [YLL015W 59-72], 2550.

In the next assay the target is T5, Rvs167 SH3 (RV167_YEAST), P39743. The assay can be described thus: SPOT array.
In turn, PSAMKLVPSIPPAT [YBR154C 118-131] gave a normalised SPOT signal, Boehringer light units (BLU); mean over the file's lines of this peptide of 45.4.
Still for that read-out and setting: in the case of PPNYKQQPNSPSSN [YLR183C 18-31] it was 1.
The molecule PQTMRQAPKRPDAD [YNL298W 493-506] showed a normalised SPOT signal, Boehringer light units (BLU); mean over the file's lines of this peptide of 3750.
On the same count and under the same terms, in the case of PLRERIIPILPANS [YMR164C 159-172] it was 261.
Same read-out and setting: the same measure for PKSPKAYPKLPDIQ [YDL117W 352-365]: 0; for PRSKKKKPAPPTLL [YMR039C 165-178]: 49.7.
On the same count and under the same terms, in the case of PPLPRAPPVPPATF [YJL021C 6-19] it was 17.7.
In the case of PPQMRSNPQQPPQD [YPL204W 472-485], the normalised SPOT signal, Boehringer light units (BLU); mean over the file's lines of this peptide came to 306.
The same measure, in the same setting: the same measure for PPPPRRGPAPPPPP [YOR181W 345-358]: 57; for PQQNRPLPQLPNRN [YOR181W 307-320]: 53800.
Still for that read-out and setting: the same measure for PPSIRKQPIAPDVL [YJR092W 754-767]: 49.5.
Still for that read-out and setting: the same measure for PKTGKPLPTQPSSS [YKR001C 557-570]: 64.7; for PNPLKKAPIPPLAY [YPR059C 36-49]: 28.8.
PPRFKNFPTLPSKI [YLL015W 59-72] gave a normalised SPOT signal, Boehringer light units (BLU); mean over the file's lines of this peptide of 210.

Another assay has as its target T6, Yhr016c SH3 (YSC84_YEAST), P32793. The assay can be described thus: SPOT array.
Take PSAMKLVPSIPPAT [YBR154C 118-131]: the normalised SPOT signal, Boehringer light units (BLU); mean over the file's lines of this peptide stood at 63.3.
Same read-out and setting: in the case of PPNYKQQPNSPSSN [YLR183C 18-31] it was 30.5; in that of PQTMRQAPKRPDAD [YNL298W 493-506], 6220.
Still for that read-out and setting: the same measure for PLRERIIPILPANS [YMR164C 159-172]: 84.4; for PKSPKAYPKLPDIQ [YDL117W 352-365]: 24.1; for PRSKKKKPAPPTLL [YMR039C 165-178]: 37.5.
On the same count and under the same terms, the same measure for PPLPRAPPVPPATF [YJL021C 6-19]: 10.8; for PPQMRSNPQQPPQD [YPL204W 472-485]: 456; for PPPPRRGPAPPPPP [YOR181W 345-358]: 39.4.
Consider PQQNRPLPQLPNRN [YOR181W 307-320], for which the normalised SPOT signal, Boehringer light units (BLU); mean over the file's lines of this peptide was 50100.
On the same count and under the same terms, the same measure for PPSIRKQPIAPDVL [YJR092W 754-767]: 29.6; for PKTGKPLPTQPSSS [YKR001C 557-570]: 24.1; for PNPLKKAPIPPLAY [YPR059C 36-49]: 16.4.
On the same count and under the same terms, the same measure for PPRFKNFPTLPSKI [YLL015W 59-72]: 87.6.

Values taken from paper PMC314469, “Protein Interaction Networks by Proteome Peptide Scanning” (PLoS Biology, 2004).
